Experimental data: patent publication US20230265151A1, “GIP/GLP1 CO-AGONIST COMPOUNDS” (priority 2020, published 2023)
Changes are numbered by the printed parent chain.

T1: human GIP receptor (human) (UniProt P48546)
T1 sequence (looked up): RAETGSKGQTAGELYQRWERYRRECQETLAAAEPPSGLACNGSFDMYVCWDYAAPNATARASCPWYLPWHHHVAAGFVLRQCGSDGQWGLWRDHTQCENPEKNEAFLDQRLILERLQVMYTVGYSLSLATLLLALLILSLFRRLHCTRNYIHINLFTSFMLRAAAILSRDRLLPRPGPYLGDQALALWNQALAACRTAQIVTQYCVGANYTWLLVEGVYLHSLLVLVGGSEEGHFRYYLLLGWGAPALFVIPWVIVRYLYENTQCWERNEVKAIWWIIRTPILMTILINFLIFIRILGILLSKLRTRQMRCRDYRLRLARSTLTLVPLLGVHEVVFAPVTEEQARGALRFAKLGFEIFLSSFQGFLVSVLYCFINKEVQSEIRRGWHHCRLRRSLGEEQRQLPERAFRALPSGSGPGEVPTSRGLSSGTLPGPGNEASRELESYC

T2: human GIP receptor (human, UniProt P48546 22-466)
T2 sequence (looked up): T1 sequence (looked up)

T3: human GIP receptor (human, UniProt P48546 22-466)
T3 sequence (looked up): T1 sequence (looked up)

B1: Example 334 (peptide)
peptide: YXEGTXTSDXXIXLDXKAQXEFIXXLIKGGPSSGAPPPS
modifications: Y-Aib-EGT-αMeF(2F)-TSD-4Pal-Aib-I-αMeL-LD-Orn-K((2-[2-(2-Amino-ethoxy)-ethoxy]-acetyl)2-(γ-Glu)-CO-(CH2)10-CH3)AQ-Aib-EFI-(D-Glu)-αMeY-LIK((2-[2-(2-Amino-ethoxy)-ethoxy]-acetyl)2-(γ-Glu)-CO-(CH2)10-CH3)GGPSSGAPPPS-NH2
B2: Example 358 (peptide)
peptide: B1 peptide
modifications: Y-Aib-EGT-αMeF(2F)-TSD-4Pal-Aib-I-αMeL-LD-Orn-K((2-[2-(2-Amino-ethoxy)-ethoxy]-acetyl)2-(γ-Glu)-CO-(CH2)12-CO2H)AQ-Aib-EFI-(D-Glu)-αMeY-LIK((2-[2-(2-Amino-ethoxy)-ethoxy]-acetyl)2-(γ-Glu)-CO-(CH2)12-CO2H)GGPSSGAPPPS-NH2
B3: Example 465 (peptide)
peptide: B1 peptide
modifications: Y-Aib-EGT-αMeF(2F)-TSD-4Pal-Aib-I-αMeL-LD-Orn-K((2-[2-(2-Amino-ethoxy)-ethoxy]-acetyl)-Aoc-CO-(CH2)12-CO2H)AQ-Aib-EFI-(D-Glu)-αMeY-LIK(((2-[2-(2-Amino-ethoxy)-ethoxy]-acetyl)-Aoc-CO-(CH2)12-CO2H)GGPSSGAPPPS-NH2)
B4: Example 395 (peptide)
peptide: B1 peptide
modifications: Y-Aib-EGT-αMeF(2F)-TSD-4Pal-Aib-I-αMeL-LD-Orn-K((2-[2-(2-Amino-ethoxy)-ethoxy]-acetyl)2-(10-(4-carboxyphenoxy)decanoyl))AQ-Aib-EFI-(D-Glu)-αMeY-LIK((2-[2-(2-Amino-ethoxy)-ethoxy]-acetyl)2-(10-(4-carboxyphenoxy)decanoyl))GGPSSGAPPPS-NH2
B5: Example 423 (peptide)
peptide: B1 peptide
modifications: Y-Aib-EGT-αMeF(2F)-TSD-4Pal-Aib-I-αMeL-LD-Orn-K((2-[2-(2-Amino-ethoxy)-ethoxy]-acetyl)3-(γ-Glu)-CO-(CH2)10-CH3)AQ-Aib-EFI-(D-Glu)-αMeY-LIK((2-[2-(2-Amino-ethoxy)-ethoxy]-acetyl)3-(γ-Glu)-CO-(CH2)10-CH3)GGPSSGAPPPS-NH2
B6: Example 427 (peptide)
peptide: B1 peptide
modifications: Y-Aib-EGT-αMeF(2F)-TSD-4Pal-Aib-I-αMeL-LD-Orn-K((2-[2-(2-Amino-ethoxy)-ethoxy]-acetyl)-(γ-Glu)-CO-(CH2)10-CH3)AQ-Aib-EFI-(D-Glu)-αMeY-LIK((2-[2-(2-Amino-ethoxy)-ethoxy]-acetyl)-(γ-Glu)-CO-(CH2)10-CH3)GGPSSGAPPPS-NH2
B7: Example 413 (peptide)
peptide: B1 peptide with E21K, K28X
modifications: Y-Aib-EGT-αMeF(2F)-TSD-4Pal-Aib-I-αMeL-LD-Orn-K((2-[2-(2-Amino-ethoxy)-ethoxy]-acetyl)2-(γ-Glu)-CO-(CH2)10-CH3)AQ-Aib-K((2-[2-(2-Amino-ethoxy)-ethoxy]-acetyl)2-(γ-Glu)-CO-(CH2)10-CH3)FI-(D-Glu)-αMeY-LI-Orn-GGPSSGAPPPS-NH2
B8: Example 408 (peptide)
peptide: B1 peptide with E21K, K28X
modifications: Y-Aib-EGT-αMeF(2F)-TSD-4Pal-Aib-I-αMeL-LD-Orn-K((2-[2-(2-Amino-ethoxy)-ethoxy]-acetyl)2-(γ-Glu)-(10-(4-carboxyphenoxy)decanoyl))AQ-Aib-K((2-[2-(2-Amino-ethoxy)-ethoxy]-acetyl)2-(γ-Glu)-(10-(4-carboxyphenoxy)decanoyl))FI-(D-Glu)-αMeY-LI-Orn-GGPSSGAPPPS-NH2
B9: Example 387 (peptide)
peptide: B1 peptide
modifications: Y-Aib-EGT-αMeF(2F)-TSD-4Pal-Aib-I-αMeL-LD-Orn-K((2-[2-(2-Amino-ethoxy)-ethoxy]-acetyl)2-CO-(CH2)12-CO2H)AQ-Aib-EFI-(D-Glu)-αMeY-LIK((2-[2-(2-Amino-ethoxy)-ethoxy]-acetyl)2-CO-(CH2)12-CO2H)GGPSSGAPPPS-NH2
B10: Example 433 (peptide)
peptide: B1 peptide with E21K, K28X
modifications: Y-Aib-EGT-αMeF(2F)-TSD-4Pal-Aib-I-αMeL-LD-Orn-K((2-[2-(2-Amino-ethoxy)-ethoxy]-acetyl)3-(γ-Glu)-CO-(CH2)10-CH3)AQ-Aib-K((2-[2-(2-Amino-ethoxy)-ethoxy]-acetyl)3-(γ-Glu)-CO-(CH2)10-CH3)FI-(D-Glu)-αMeY-LI-Orn-GGPSSGAPPPS-NH2
B11: Example 406 (peptide)
peptide: B1 peptide with E21K, K28X
modifications: Y-Aib-EGT-αMeF(2F)-TSD-4Pal-Aib-I-αMeL-LD-Orn-K((2-[2-(2-Amino-ethoxy)-ethoxy]-acetyl)2-(γ-Glu)-CO-(CH2)12-CO2H)AQ-Aib-K((2-[2-(2-Amino-ethoxy)-ethoxy]-acetyl)2-(γ-Glu)-CO-(CH2)12-CO2H)FI-(D-Glu)-αMeY-LI-Orn-GGPSSGAPPPS-NH2
B12: Example 361 (peptide)
peptide: B1 peptide
modifications: Y-Aib-EGT-αMeF(2F)-TSD-4Pal-Aib-I-αMeL-LD-Orn-K((2-[2-(2-Amino-ethoxy)-ethoxy]-acetyl)-(γ-Glu)-(10-(4-carboxyphenoxy)decanoyl))AQ-Aib-EFIe-αMeY-LIK((2-[2-(2-Amino-ethoxy)-ethoxy]-acetyl)-(γ-Glu)-(10-(4-carboxyphenoxy)decanoyl))GGPSSGAPPPS-NH2

Columns and labels:
Assay in all cases: cell-based or functional assay
[1] = target: human glucagon receptor (human) (UniProt P47871)
hGLP-1R = hGLP-1R (Homo sapiens, UniProt P43220)
[2] = target: T1, human GIP receptor (human)
human GLP-1 receptor [3] = target: human GLP-1 receptor (human, UniProt P43220 24-463)
human GIP receptor [4] = target: T2, human GIP receptor
human GLP-1 receptor [5] = target: human GLP-1 receptor (human, UniProt P43220 24-463); remark: listed apart in the source
human GIP receptor [6] = target: T3, human GIP receptor; remark: listed apart in the source

Row | Molecule | cAMP EC50 (1.0% HSA) [1] [nM] | cAMP EC50 (1.0% HSA) (hGLP-1R) [nM] | cAMP Emax (1.0% HSA) (hGLP-1R) [%] | cAMP EC50 (1.0% HSA) [2] [nM] | cAMP Emax (1.0% HSA) [2] [%] | cAMP EC50 [1] [nM] | cAMP EC50 (hGLP-1R) [nM] | cAMP Emax (hGLP-1R) [%] | cAMP EC50 [2] [nM] | cAMP Emax [2] [%] | cAMP EC50 (1.0% HSA) (human GLP-1 receptor [3]) [nM] | cAMP EC50 (1.0% HSA) (human GIP receptor [4]) [nM] | cAMP EC50 (1.0% HSA) (human GLP-1 receptor [5]) [nM] | cAMP EC50 (1.0% HSA) (human GIP receptor [6]) [nM] | cAMP Emax (1.0% HSA) (human GIP receptor [6]) [%]
1 | Y-Aib-EGT-αMeF(2F)-TSD-4Pal-SI-αMeL-LD-Orn-K((2-[2-(2-Amino-ethoxy)-ethoxy]-acetyl)2-(γ-Glu)-CO-(CH2)14-CH3)AQ-Aib-EFI-(D-Glu)K((2-[2-(2-Amino-ethoxy)-ethoxy]-acetyl)2-(γ-Glu)-CO-(CH2)14-CH3)…-NH2 (peptide) | > 9950 | 1.73 | 102 | 0.148 | 98.2 | – | – | – | – | – | – | – | – | – | –
2 | Y-Aib-EGT-αMeF(2F)-TSD-4Pal-SI-αMeL-LD-Orn-K((2-[2-(2-Amino-ethoxy)-ethoxy]-acetyl)2-(εK)-CO-(CH2)12-CO2H)AQ-Aib-EFI-(D-Glu)-αMeY-LIEGGK((2-[2-(2-Amino-ethoxy)-ethoxy]-acetyl)2-(εK)-CO-(CH2)12-CO2H)-NH2 (peptide) | > 9950 | 11.3 | 103 | 0.335 | 86.2 | – | – | – | – | – | – | – | – | – | –
3 | Y-Aib-EGT-αMeF(2F)-TSD-4Pal-SI-αMeL-LD-Orn-K((εK)-(γ-Glu)-CO-(CH2)12-CO2H)AQ-Aib-EFI-(D-Glu)-αMeY-LIEGGK((εK)-(γ-Glu)-CO-(CH2)12-CO2H)-NH2 (peptide) | > 9950 | 24.3 | 107 | 2.19 | 85.6 | – | – | – | – | – | – | – | – | – | –
4 | Y-Aib-EGT-αMeF(2F)-TSD-4Pal-SI-αMeL-LD-Orn-K((εK)-(εK)-(γ-Glu)-CO-(CH2)12-CO2H)AQ-Aib-EFI-(D-Glu)-αMeY-LIEGGK((εK)-(εK)-(γ-Glu)-CO-(CH2)12-CO2H)-NH2 (peptide) | > 9950 | 18 | 109 | 0.939 | 79.3 | – | – | – | – | – | – | – | – | – | –
5 | Y-Aib-EGT-αMeF(2F)-TSD-4Pal-αMeS-I-αMeL-LD-Orn-K((2-[2-(2-Amino-ethoxy)-ethoxy]-acetyl)2-(γ-Glu)-CO-(CH2)12-CO2H)AQ-Aib-EFIK((2-[2-(2-Amino-ethoxy)-ethoxy]-acetyl)2-(γ-Glu)-CO-(CH2)12-CO2H)-αMeY-…-NH2 (peptide) | > 9950 | 17.9 | 108 | 2.03 | 80.4 | – | – | – | – | – | – | – | – | – | –
6 | B1 | – | – | – | – | – | > 9950 | 0.131 | 104 | 0.00987 | 103 | 8.67 | 0.618 | – | – | –
7 | B2 | – | – | – | – | – | > 10100 | 0.773 | 107 | 0.0137 | 99.6 | – | – | 65.3 | 2.06 | 86.2
8 | B3 | – | – | – | – | – | > 9950 | 0.413 | 98.6 | 0.0174 | 94.9 | – | – | 73.2 | 3.63 | 94.4
9 | B4 | – | – | – | – | – | > 9950 | 0.377 | 90.8 | 0.0127 | 93.1 | – | – | 6.26 | 0.327 | 57.8
10 | B5 | – | – | – | – | – | > 9950 | 0.0721 | 105 | 0.00658 | 104 | – | – | 4.74 | 0.294 | 89.7
11 | B6 | – | – | – | – | – | > 9950 | 0.206 | 109 | 0.0132 | 95.9 | – | – | 25.1 | 2.04 | 92.4
12 | B7 | – | – | – | – | – | > 9950 | 0.234 | 96.9 | 0.0146 | 101 | – | – | 5.47 | 0.422 | –
13 | B8 | – | – | – | – | – | > 9950 | 0.227 | 102 | 0.00888 | 99.7 | – | – | 5.92 | 0.299 | –
14 | B9 | – | – | – | – | – | > 9950 | 0.32 | 101 | 0.0137 | 102 | – | – | 4.4 | 0.278 | 93
15 | B10 | – | – | – | – | – | > 9950 | 0.128 | 102 | 0.00972 | 94 | – | – | 2.63 | 0.136 | –
16 | B11 | – | – | – | – | – | > 9950 | 0.351 | 98.5 | 0.00896 | 101 | – | – | 9.21 | 0.527 | –
17 | B12 | – | – | – | – | – | > 9950 | 0.58 | 98.2 | 0.0121 | 107 | – | – | 43 | 1.44 | 88.8
